Like-named read-outs stand apart in the source and are kept apart here.
Legend:
HLA-Cw0702 (human) = test: competition binding assay with labelled reference peptide
HLA-B0801 (human) [1] = test: as above
HLA-A0201 (human) = test: competition vs labelled reference peptide
HLA-A2402 (human) = test: competition vs labelled reference peptide
HLA-A0101 (human) = test: competition vs labelled reference peptide
HLA-B0702 (human) = test: competition vs labelled reference peptide
HLA-B*0702 (human) [2] = test: competition binding assay, purified HLA, labelled probe peptide
HLA-B*3501 (human) = test: as above
HLA-B*0702 (human) [3] = test: competition binding assay against a labelled reference peptide; Ki from IC50; details: remark: other sources report otherwise
HLA-B0801 (human) [4] = test: competition vs labelled reference peptide; details: remark: other sources report otherwise
[5] = remark: other sources report otherwise

B1: … (peptide)
peptide: VRVCEKMAL
modifications: not checked
- Ki (HLA-Cw0702 (human)): 377 nM

B2: … (peptide)
peptide: RTKLKLTPI
modifications: not checked
- Ki (HLA-B0801 (human) [1]): 2 nM

B3: … (peptide)
peptide: SVFTGLTHI
modifications: not checked
- Ki (HLA-A0201 (human); [5]): 101 nM

B4: … (peptide)
peptide: LYGNEGLGW
modifications: not checked
- Ki (HLA-A2402 (human)): 5 nM

B5: … (peptide)
peptide: GMFDSSVLC
modifications: not checked
- Ki (HLA-A0201 (human)): 71 nM

B6: … (peptide)
peptide: LVDILAGYGA
modifications: not checked
- Ki (HLA-A0101 (human)): 419 nM

B7: … (peptide)
peptide: ATLGFGAYM
modifications: not checked
- Ki (HLA-B0702 (human)): 13000 nM

B8: … (peptide)
peptide: WLGNIIMYA
modifications: not checked
- Ki (HLA-A0201 (human); [5]): 33 nM

B9: … (peptide)
peptide: IMAKNEVFCV
modifications: not checked
- Ki (HLA-A0201 (human); [5]): 199 nM

B10: … (peptide)
peptide: AAKLSALGL
modifications: not checked
- IC50 (HLA-B*0702 (human) [2]): 277 nM
- Ki (HLA-B0702 (human)): 277 nM

B11: … (peptide)
peptide: KVLVLNPSV
modifications: not checked
- Ki (HLA-A0201 (human)): 50 nM

B12: … (peptide)
peptide: LPAILSPGAL
modifications: not checked
- IC50 (HLA-B*3501 (human)): 550 nM

B13: … (peptide)
peptide: GLGWAGWLL
modifications: not checked
- Ki (HLA-A2402 (human)): 68 nM

B14: … (peptide)
peptide: AQPGYPWPL
modifications: not checked
- Ki (HLA-A0201 (human)): 382 nM

B15: LPRRGPRL (peptide)
peptide: LPRRGPRL
modifications: not checked
- Ki (HLA-B0801 (human) [1]; [5]): 6 nM
- Ki (HLA-B0702 (human); [5]): 1 nM

B16: … (peptide)
peptide: FIPVESMET
modifications: not checked
- Ki (HLA-A0201 (human)): 934 nM

B17: … (peptide)
peptide: FLLALLSCLT
modifications: not checked
- Ki (HLA-A0201 (human)): 132 nM

B18: … (peptide)
peptide: YLFNWAVRT
modifications: not checked
- Ki (HLA-A0201 (human)): 29 nM

B19: … (peptide)
peptide: PLLLLLLAL
modifications: not checked
- Ki (HLA-A0201 (human)): 6550 nM

B20: … (peptide)
peptide: ARLIVFPDL
modifications: not checked
- Ki (HLA-Cw0702 (human)): 514 nM

B21: … (peptide)
peptide: KSTKVPAAY
modifications: not checked
- Ki (HLA-A0101 (human); [5]): 950 nM

B22: … (peptide)
peptide: APTLWARMIL
modifications: not checked
- Ki (HLA-B*0702 (human) [3]): 1 nM
- Ki (HLA-B0702 (human); [5]): 1 nM

B23: … (peptide)
peptide: EARQAIRSL
modifications: not checked
- Ki (HLA-B0801 (human) [4]): 9 nM

B24: … (peptide)
peptide: APLGGAARAL
modifications: not checked
- IC50 (HLA-B*0702 (human) [2]; [5]): 0.8 nM
- Ki (HLA-B*0702 (human) [3]): 1 nM
- Ki (HLA-B0702 (human); [5]): 1 nM

B25: … (peptide)
peptide: LVLNPSVAA
modifications: not checked
- Ki (HLA-A0201 (human)): 2880 nM

B26: … (peptide)
peptide: LADGGCSGGAY
modifications: not checked
- Ki (HLA-A0101 (human)): 60 nM

B27: … (peptide)
peptide: AVMGSSYGF
modifications: not checked
- Ki (HLA-A2402 (human); [5]): 10 nM

B28: … (peptide)
peptide: YQATVCARA
modifications: not checked
- Ki (HLA-A0201 (human)): 20 nM

B29: … (peptide)
peptide: SWDQMWKCL
modifications: not checked
- Ki (HLA-A2402 (human); [5]): 670 nM

B30: … (peptide)
peptide: PFYGKAIPI
modifications: not checked
- Ki (HLA-A2402 (human)): 4 nM

B31: … (peptide)
peptide: TWAQPGYPW
modifications: not checked
- Ki (HLA-A2402 (human)): 8 nM

B32: … (peptide)
peptide: QIVGGVYLL
modifications: not checked
- Ki (HLA-A0201 (human)): 228 nM

B33: … (peptide)
peptide: IMACMSADL
modifications: not checked
- Ki (HLA-A0201 (human); [5]): 66 nM

B34: … (peptide)
peptide: DLCGSVFLV
modifications: not checked
- Ki (HLA-A0201 (human); [5]): 789 nM

B35: … (peptide)
peptide: NIIMYAPTL
modifications: not checked
- Ki (HLA-A0201 (human)): 70 nM

B36: … (peptide)
peptide: LPRRGPRLG
modifications: not checked
- IC50 (HLA-B*0702 (human) [2]): 124 nM

B37: … (peptide)
peptide: RLYIGGPLT
modifications: not checked
- Ki (HLA-A0201 (human)): 845 nM

B38: … (peptide)
peptide: FTEAMTRYS
modifications: not checked
- Ki (HLA-A0101 (human)): 6610 nM

B39: … (peptide)
peptide: GLTHIDAHF
modifications: not checked
- Ki (HLA-A2402 (human)): 10 nM

B40: … (peptide)
peptide: CLVDYPYRL
modifications: not checked
- Ki (HLA-A0201 (human)): 437 nM

B41: VMGSSYGF (peptide)
peptide: VMGSSYGF
modifications: not checked
- Ki (HLA-A2402 (human); [5]): 33 nM

B42: … (peptide)
peptide: SMVGNWAKV
modifications: not checked
- Ki (HLA-A0201 (human)): 158 nM

B43: … (peptide)
peptide: AARALAHGV
modifications: not checked
- Ki (HLA-B0702 (human)): 209 nM

B44: … (peptide)
peptide: QPRGRRQPI
modifications: not checked
- Ki (HLA-B*0702 (human) [3]): 1 nM
- Ki (HLA-B0801 (human) [1]; [5]): 3 nM
- Ki (HLA-B0702 (human); [5]): 1 nM

B45: … (peptide)
peptide: FWAKHMWNF
modifications: not checked
- Ki (HLA-A2402 (human)): 2 nM

B46: … (peptide)
peptide: PAVPQTFQV
modifications: not checked
- Ki (HLA-A2402 (human)): 991 nM

B47: … (peptide)
peptide: YLKGSSGGPL
modifications: not checked
- Ki (HLA-B0801 (human) [1]): 10 nM

B48: … (peptide)
peptide: TYSTYGKFL
modifications: not checked
- Ki (HLA-Cw0702 (human)): 1020 nM

B49: … (peptide)
peptide: MGSSYGFQY
modifications: not checked
- Ki (HLA-A0101 (human); [5]): 1020 nM

B50: TYSTYGKF (peptide)
peptide: TYSTYGKF
modifications: not checked
- Ki (HLA-A2402 (human)): 192 nM

B51: … (peptide)
peptide: TIMAKNEVF
modifications: not checked
- Ki (HLA-B0801 (human) [1]): 6 nM

B52: … (peptide)
peptide: KPTLHGPTPL
modifications: not checked
- IC50 (HLA-B*0702 (human) [2]; [5]): 5.8 nM
- Ki (HLA-B*0702 (human) [3]): 6 nM
- Ki (HLA-B0702 (human); [5]): 6 nM

B53: … (peptide)
peptide: YIPLVGAPL
modifications: not checked
- Ki (HLA-A0201 (human); [5]): 337 nM

B54: … (peptide)
peptide: LPRRGPRLGV
modifications: not checked
- Ki (HLA-B*0702 (human) [3]): 3 nM
- Ki (HLA-B0702 (human); [5]): 3 nM

B55: … (peptide)
peptide: TPGERPSGM
modifications: not checked
- IC50 (HLA-B*0702 (human) [2]): 199 nM
- Ki (HLA-B0702 (human)): 199 nM

B56: … (peptide)
peptide: VIDTLTCGF
modifications: not checked
- Ki (HLA-A0101 (human)): 1130 nM

B57: … (peptide)
peptide: ALAHGVRVL
modifications: not checked
- Ki (HLA-A0201 (human); [5]): 674 nM
- Ki (HLA-B0702 (human); [5]): 7950 nM

B58: … (peptide)
peptide: FTDNSSPPA
modifications: not checked
- Ki (HLA-A0101 (human)): 10 nM

B59: IPLVGAPL (peptide)
peptide: IPLVGAPL
modifications: not checked
- IC50 (HLA-B*0702 (human) [2]): 25 nM
- Ki (HLA-B0801 (human) [4]): 20 nM

B60: … (peptide)
peptide: LTCGFADLM
modifications: not checked
- Ki (HLA-A0101 (human)): 3550 nM

B61: … (peptide)
peptide: YYRGLDVSVI
modifications: not checked
- Ki (HLA-A2402 (human)): 437 nM

B62: … (peptide)
peptide: MALYDVVST
modifications: not checked
- Ki (HLA-A0201 (human)): 1140 nM

B63: … (peptide)
peptide: PAAYAAQGY
modifications: not checked
- Ki (HLA-A0101 (human)): 1610 nM

B64: … (peptide)
peptide: APTGSGKST
modifications: not checked
- IC50 (HLA-B*0702 (human) [2]): 370 nM
- Ki (HLA-B0702 (human)): 370 nM

B65: … (peptide)
peptide: TLWARMILM
modifications: not checked
- Ki (HLA-A2402 (human)): 2640 nM

B66: … (peptide)
peptide: CYDAGCAWY
modifications: not checked
- Ki (HLA-A0101 (human); [5]): > 20000 nM

B67: … (peptide)
peptide: NLPGCSFSI
modifications: not checked
- Ki (HLA-A0201 (human); [5]): 83 nM
- Ki (HLA-A2402 (human); [5]): 8 nM

B68: … (peptide)
peptide: APLGGAARA
modifications: not checked
- IC50 (HLA-B*0702 (human) [2]): 115 nM
- Ki (HLA-B0702 (human)): 115 nM

— patent EP1652858A1
